{"source": "patent US20240398911A1", "about": "(BOARD OF THE TRUSTEES OF THE UNIVERSITY OF ILLINOIS, published 2024)", "key": {"[1]": {"target": "S protein of SARS-CoV-1 expressed on Expi293F cells (SARS-CoV-1, UniProt P59594 14-1255)", "assay": "flow cytometry; Expi293F cells expressing S of SARS-CoV-1; normalized units, N=3"}, "[2]": {"target": "full length S of SARS-CoV-2 (untagged, a.a. 1-1273) expressed on Expi293F cells (SARS-CoV-2, UniProt P0DTC2 16-1273)"}, "[3]": {"target": "T1, RBD (a.a. 333-529) of SARS-CoV-2 S with 8 histidine tag (SARS-CoV-2, UniProt P0DTC2 333-529)"}, "[4]": {"target": "T1, RBD (a.a. 333-529) of SARS-CoV-2 S with …", "assay": "BLI, sACE22-IgG1 immobilized, RBD-8h analyte"}, "[5]": {"target": "T1, RBD (a.a. 333-529) of SARS-CoV-2 S with …", "remark": "listed apart in the source"}}, "note": "Like-named read-outs stand apart in the source and are kept apart here."}
{"binder": "REGN10933 (casirivimab) (antibody, V domains shown) VH: QVQLVESGGGLVKPGGSLRLSCAASGFTFSDYYMSWIRQAPGKGLEWVSYITYSGSTIYYADSVKGRFTISRDNAKSSLYLQMNSLRAEDTAVYYCARDRGTTMVPFDYWGQGTLVTVSS VL: DIQMTQSPSSLSASVGDRVTITCQASQDITNYLNWYQQKPGKAPKLLIYAASNLETGVPSRFSGSGSGTDFTFTISGLQPEDIATYYCQQYDNLPLTFGGGTKVEIKR", "values": [{"measurement": "binding result", "setting": "[1]", "result": "no binding (tested: 70 nM)"}]}
{"binder": "REGN10987 (imdevimab) (antibody, V domains shown) VH: QVQLVESGGGVVQPGRSLRLSCAASGFTFSNYAMYWVRQAPGKGLEWVAVISYDGSNKYYADSVKGRFTISRDNSKNTLYLQMNSLRTEDTAVYYCASGSDYGDYLLVYWGQGTLVTVSS VL: QSALTQPASVSGSPGQSITISCTGTSSDVGGYNYVSWYQQHPGKAPKLMIYDVSKRPSGVSNRFSGSKSGNTASLTISGLQSEDEADYYCNSLTSISTWVFGGGTKLTVLG", "values": [{"measurement": "binding result", "setting": "[1]", "result": "no binding (tested: 70 nM)"}]}
{"binder": "sACE2.v2 with 8 histidine tag (receptor) STIEEQAKYFLDKFNHEAEDLFYQSSLASWNYNTNITEENVQNMNNAGDKWSAFLKEQSTTAQMYPLQEIQNLTVKLQLQALQQNGSSVLSEDKSKRLNTILNTMSTIYSTGKVCNPDNPQECLLLEPGLNEIMANSLDYNERLWAWESWRSEVGKQLRPLYEEYVVLKNEMARANHYEDYGDYWRGDYEVNGVDGYDYSRGQLIEDVEHTFEEIKPLYEHLHAYVRAKLMNAYPSYISPIGCLPAHLLGDMWGRFWTNLYSLTVPFGQKPNIDVTDAMVDQAWDAQRIFKEAEKFFVSVGLPNMTQGFWEYSMLTDPGNVQKAVCHPTAWDLGKGDFRILMCTKVTMDDFLTAHHEMGHIQYDMAYLAQPFLLRNGANEGFHEAVGEIMSLSAATPKHLKSIGLLSPDFQEDNETEINFLLKQALTIVGTLPFTYMLEKWRWMVFKGEIPKDQWMKKWWEMKREIVGVVEPVPHDETYCDPASLFHVSNDYSFIRYYTRTLYQFQFQEALCQAAKHEGPLHKCDISNSTEAGQKLFNMLRLGKSEPWTLALENVVGAKNMNVRPLLNYFEPLFTWLKDQNKNSFVGWSTDWSPYADGSGHHHHHHHH", "values": [{"measurement": "EC50 (read off the curve)", "setting": "[2]", "result": "~10", "unit": "nM"}, {"measurement": "IC50 (read off the curve)", "setting": "[3]", "result": "~6", "unit": "nM"}]}
{"binder": "dimeric sACE22.v2 fused to the Fc of human IgG1 (Fc fusion) STIEEQAKYFLDKFNHEAEDLFYQSSLASWNYNTNITEENVQNMNNAGDKWSAFLKEQSTTAQMYPLQEIQNLTVKLQLQALQQNGSSVLSEDKSKRLNTILNTMSTIYSTGKVCNPDNPQECLLLEPGLNEIMANSLDYNERLWAWESWRSEVGKQLRPLYEEYVVLKNEMARANHYEDYGDYWRGDYEVNGVDGYDYSRGQLIEDVEHTFEEIKPLYEHLHAYVRAKLMNAYPSYISPIGCLPAHLLGDMWGRFWTNLYSLTVPFGQKPNIDVTDAMVDQAWDAQRIFKEAEKFFVSVGLPNMTQGFWEYSMLTDPGNVQKAVCHPTAWDLGKGDFRILMCTKVTMDDFLTAHHEMGHIQYDMAYLAQPFLLRNGANEGFHEAVGEIMSLSAATPKHLKSIGLLSPDFQEDNETEINFLLKQALTIVGTLPFTYMLEKWRWMVFKGEIPKDQWMKKWWEMKREIVGVVEPVPHDETYCDPASLFHVSNDYSFIRYYTRTLYQFQFQEALCQAAKHEGPLHKCDISNSTEAGQKLFNMLRLGKSEPWTLALENVVGAKNMNVRPLLNYFEPLFTWLKDQNKNSFVGWSTDWSPYADQSIKVRISLKSALGDKAYEWNDNEMYLFRSSVAYAMRQYFLKVKNQMILFGEEDVRVANLKPRISFNFFVTAPKNVSDIIPRTEVEKAIRMSRSRINDAFRLNDNSLEFLGIQPTLGGS", "values": [{"measurement": "Kd", "setting": "[4]", "result": 0.2, "unit": "nM"}, {"measurement": "koff", "setting": "[4]", "result": 0.00014, "unit": "s⁻¹"}, {"measurement": "kon", "setting": "[4]", "result": 580000, "unit": "M⁻¹ s⁻¹"}]}
{"binder": "dimeric sACE22.v2.4 with 8 histidine tag (receptor) STIEEQAKYFLDKFNHEAEDLFYQSSLASWNYNTNITEENVQNMNNAGDKWSAFLKEQSTTAQMYPLQEIQNLTVKLQLQALQQNGSSVLSEDKSKRLNTILNTMSTIYSTGKVCNPDNPQECLLLEPGLNEIMANSLDYNERLWAWESWRSEVGKQLRPLYEEYVVLKNEMARANHYEDYGDYWRGDYEVNGVDGYDYSRGQLIEDVEHTFEEIKPLYEHLHAYVRAKLMNAYPSYISPIGCLPAHLLGDMWGRFWTNLYSLTVPFGQKPNIDVTDAMVDQAWDAQRIFKEAEKFFVSVGLPNMTQGFWEYSMLTDPGNVQKAVCHPTAWDLGKGDFRILMCTKVTMDDFLTAHHEMGHIQYDMAYAAQPFLLRNGANEGFHEAVGEIMSLSAATPKHLKSIGLLSPDFQEDNETEINFLLKQALTIVGTLPFTYMLEKWRWMVFKGEIPKDQWMKKWWEMKREIVGVVEPVPHDETYCDPASLFHVSNDYSFIRYYTRTLYQFQFQEALCQAAKHEGPLHKCDISNSTEAGQKLFNMLRLGKSEPWTLALENVVGAKNMNVRPLLNYFEPLFTWLKDQNKNSFVGWSTDWSPYADQSIKVRISLKSALGDKAYEWNDNEMYLFRSSVAYAMRQYFLKVKNQMILFGEEDVRVANLKPRISFNFFVTAPKNVSDIIPRTEVEKAIRMSRSRINDAFRLNDNSLEFLGIQPTLGGSGHHHHHHHH", "values": [{"measurement": "IC50 (read off the curve)", "setting": "[5]", "result": "~4", "unit": "nM"}]}
